The values that follow come from publication PMC11926218, “Structure and unusual binding mechanism of the hyaluronan receptor LYVE-1 mediating leucocyte entry to lymphatics” (Nature Communications, 2025).

The data set deals with the molecule itself. The data set is described as follows: SEC; Superdex Increase 200 10/300GL, protein in PBS after His Trap purification; step run to remove aggregates. On the technique in general: SEC sorts molecules by how far they enter the pores of the column.

B1: wild-type hLYVE-1 Δ238 His10 (soluble full ectodomain of human LYVE-1) (domain or fragment, UniProt Q9Y5Y7 20-238, looked up)
chain: LVQGSLRAEELSIQVSCRIMGITLVSKKANQQLNFTEAKEACRLLGLSLAGKDQVETALKASFETCSYGWVGDGFVVISRISPNPKCGKNGVGVLIWKVPVSRQFAAYCYNSSDTWTNSCIPEIITTKDPIFNTQTATQTTEFIVSDSTYSVASPYSTIPAPTTTPPAPASTSIPRRKKLICVTEVFMETSTMSTETEPFVENKAAFKNEAAGFGGVPT
notes: signal peptide in the construct; Obtained as a mixture of monomer and disulfide-linked homodimer; The protein is glycosylated, made in CHO cells; also called hLYVE-1 full wild-type ectodomain; hLYVE-1 Δ238 with a His10 single tag; source: CHO-K1, transfected (pEE14), culture supernatant, purified (His Trap, size exclusion chromatography); not shown: His10, C-terminal, kept
Turning to B1, the binding result was “binds”.
